The test addresses HLA-A*02:01. The test is described as follows: IEDB peptide-MHC binding, cellular MHC/competitive/fluorescence; ≥ and ≤ were set here for values at or beyond the usual limits of such assays. The settings on record: source organism: Human papillomavirus 16.
In the case of TLEDLLMGT, the IC50 (usually the point on the concentration scale where inhibition reaches its midpoint) is 64.6 µM.

As to EDLLMGTLGIV, the 50% inhibitory concentration (IC50) stood at 14.2 µM. Compared with the last sequence, the IC50 is about 4.5-fold lower.

Take MLDLQPET: the IC50 was 53.7 µM.

With IRTLEDLLMGT, the IC50 was determined as 31.9 µM.

On to YMLDLQPE, for which the IC50 is 8.07 µM.

With YMLDLQPETTD, the IC50 is 2.37 µM.

On to RTLEDLLMGT, for which the IC50 worked out at 66.9 µM.

As to TLHEYMLDLQP, the IC50 turned out to be 19.4 µM.

EYMLDLQPET had an IC50 of 45.3 µM. Compared with the last sequence, the IC50 is about 2.3-fold higher.

The sequence RTLEDLLMGTL displayed a half-inhibitory concentration (IC50) of 2.69 µM.

ELQTTIHDI registered an IC50 of 36.9 µM.

(Values after the Immune Epitope Database (IEDB).)
